Source: US5847088A, “Antibodies specific for platelet-activating factor acetylhydrolase” (ICOS Corporation, priority 1995, dated 1998)

Test system: zymosan A-induced edema
Assay: Rat foot edema model, zymosan A-induced
Assay type: in vivo
Details: 2000 U IV 15 minutes before zymosan A, 2 hours
Description: Six to eight-week-old female Long Evans rats (Charles River, Wilmington, Mass.), weighing 180-200 grams, were used for all experiments. Prior to experimental manipulations, animals were anesthetized with a mixture of the anesthetics Ketaset (Fort Dodge Laboratories, Fort Dodge, Iowa), Rompun (Miles, Shawnee Mission, Kans.), and Ace Promazine (Aveco, Fort Dodge, Iowa) administered subcutaneously at approximately 2.5 mg Ketaset, 1.6 mg Rompun, 0.2 mg Ace Promazine per animal per dose. Edema was induced in the foot by administration of either PAF or zymosan as follows. […] Animals received 50 μl PAF (final dose of 0.96 nmoles) subcutaneously between the hind foot pads, and edema was assessed after 1 hour and again after 2 hours in some experiments. […] Animals received 50 μl of zymosan (final dose of 500 μg) subcutaneously between the hind foot pads and edema was assessed after 2 hours.
Edema was quantitated by measuring the foot volume immediately prior to administration of PAF or zymosan and at indicated time point post-challenge with PAF or zymosan. Edema is expressed as the increase in foot volume in milliliters. […]
Rats (N=4 per group) were pretreated IV with either PAF-AH (2000 U in 300 μl carrier) or carrier alone. Fifteen minutes after pretreatment, groups received either PAF or zymosan A, and foot volume was assessed after 1 and 2 hours, respectively.

B1: PAF-AH: Recombinant human plasma platelet-activating factor acetylhydrolase (beginning at Ile42 of SEQ ID NO:8) expressed in E. coli (protein, UniProt Q13093 22-441, looked up)
Platelet-activating factor …: FDWQYINPVAHMKSSAWVNKIQVLMAAASFGQTKIPRGNGPYSVGCTDLMFDHTNKGTFLRLYYPSQDNDRLDTLWIPNKEYFWGLSKFLGTHWLMGNILRLLFGSMTTPANWNSPLRPGEKYPLVVFSHGLGAFRTLYSAIGIDLASHGFIVAAVEHRDRSASATYYFKDQSAAEIGDKSWLYLRTLKQEEETHIRNEQVRQRAKECSQALSLILDIDHGKPVKNALDLKFDMEQLKDSIDREKIAVIGHSFGGATVIQTLSEDQRFRCGIALDAWMFPLGDEVYSRIPQPLFFINSEYFQYPANIIKMKKCYSPDKERKMITIRGSVHQNFADFTFATGKIIGHMLKLKGDIDSNVAIDLSNKASLAFLQKHLGLHKDFDQWDCLIEGDDENLIPGTNINTTNQHIMLQNSSGIEKYN
  effect on zymosan induced edema: failed to block
